Measured values reported in patent US8993229.

Columns and labels:
[1] = biological target: porcine gastric mucin coupled to magnetic beads (mucin from porcine stomach, type III, Sigma) (porcine); experiment: PGM-MB pull-down, qRT-PCR of the bound fraction; after 500 and 600 MPa, 5 minutes, 5 C
[2] = biological target: porcine gastric mucin coupled to magnetic beads (mucin from porcine stomach, type III, Sigma) (porcine); experiment: PGM-MB pull-down, qRT-PCR; after 600 MPa, 5 minutes, 5 C
[3] = biological target: porcine gastric mucin coupled to magnetic beads (mucin from porcine stomach, type III, Sigma) (porcine); experiment: PGM-MB pull-down, qRT-PCR; untreated control in the initial pressure trials
[4] = biological target: porcine gastric mucin coupled to magnetic beads (mucin from porcine stomach, type III, Sigma) (porcine); experiment: PGM-MB pull-down, qRT-PCR; 0 J/cm^2 in the UV series
[5] = biological target: porcine gastric mucin coupled to magnetic beads (mucin from porcine stomach, type III, Sigma) (porcine); experiment: PGM-MB pull-down, qRT-PCR; 0 J/cm^2; printed as 'bound' but the context (84% bound) shows it is the unbound fraction
[6] = biological target: porcine gastric mucin coupled to magnetic beads (mucin from porcine stomach, type III, Sigma) (porcine); experiment: PGM-MB pull-down, qRT-PCR; untreated virus (0 seconds) in the thermal series
[7] = biological target: porcine gastric mucin coupled to magnetic beads (mucin from porcine stomach, type III, Sigma) (porcine); experiment: PGM-MB pull-down, qRT-PCR; untreated virus in the 300-600 MPa series
[8] = biological target: porcine gastric mucin coupled to magnetic beads (mucin from porcine stomach, type III, Sigma) (porcine); experiment: PGM-MB pull-down, qRT-PCR; after 1 J/cm^2 UV
[9] = biological target: porcine gastric mucin coupled to magnetic beads (mucin from porcine stomach, type III, Sigma) (porcine); experiment: PGM-MB pull-down, qRT-PCR; after 0.25 J/cm^2 UV
[10] = biological target: porcine gastric mucin coupled to magnetic beads (mucin from porcine stomach, type III, Sigma) (porcine); experiment: PGM-MB pull-down, qRT-PCR; after 0.5 J/cm^2 UV
[11] = biological target: porcine gastric mucin coupled to magnetic beads (mucin from porcine stomach, type III, Sigma) (porcine); experiment: PGM-MB pull-down, qRT-PCR; after about 60 seconds in the heat block, about 64 C

GI.1 norovirus after high pressure treatment (300-600 MPa, 5 minutes, 5 C) (from UniProt Q83884 1-530)
log10 reduction of qRT-PCR detectable norovirus RNA after binding to PGM-MBs [1]: > 4.7
percent bound [2]: 0.3%

GII.4 norovirus after high pressure treatment (600 MPa, 5 minutes, 5 C)
percent bound [2]: 4%

GII.4 norovirus (untreated virions, stock provided by the CDC)
percent bound [3]: 69%

GI.1 Norwalk strain norovirus (untreated virions from stool stock, patient No. 505A-05) (from UniProt Q83884 1-530)
percent bound [4]: 84%
percent unbound [5]: 16%
percent bound [6]: 68%
percent unbound [6]: 32%
percent bound [7]: 82%
percent bound [3]: 71%

GI.1 norovirus after UV treatment (254 nm, up to 2 J/cm^2) (from UniProt Q83884 1-530)
percent bound [8]: 4%
percent unbound [9]: 40%
percent bound [10]: 33%
percent unbound [10]: 67%

GI.1 norovirus after thermal treatment (80 C heat block, 0-600 seconds) (from UniProt Q83884 1-530)
percent bound [11]: 6%
